Source: patent US20210147541A1 (Kyowa Kirin, published 2021)
Changes are numbered by the printed parent chain. In names and notes the source's numbering stands. Where two headings read alike, the source gives them in different places.

T1: mouse CADM3 (mouse, UniProt Q99N28 23-396)
T1 construct: Full-length gene expressed transiently on Expi293F cells; also called mouse CADM3/Expi293F cells; Mouse CADM3-expressing cells
T1 sequence: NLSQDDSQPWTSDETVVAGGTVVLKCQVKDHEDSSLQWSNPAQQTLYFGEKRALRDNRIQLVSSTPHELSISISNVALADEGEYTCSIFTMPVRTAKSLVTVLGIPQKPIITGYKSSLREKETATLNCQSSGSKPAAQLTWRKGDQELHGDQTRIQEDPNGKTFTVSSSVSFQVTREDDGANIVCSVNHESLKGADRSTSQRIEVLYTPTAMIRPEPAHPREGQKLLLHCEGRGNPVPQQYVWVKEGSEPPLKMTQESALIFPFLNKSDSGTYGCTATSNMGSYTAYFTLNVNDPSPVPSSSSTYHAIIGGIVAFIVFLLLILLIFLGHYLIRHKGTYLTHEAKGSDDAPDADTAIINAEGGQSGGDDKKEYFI

T2: human CADM3 (human, UniProt Q8N126 25-398)
T2 construct: Full-length gene expressed transiently on Expi293F cells; also called cell adhesion molecule 3; human CADM3/Expi293F cells
T2 sequence: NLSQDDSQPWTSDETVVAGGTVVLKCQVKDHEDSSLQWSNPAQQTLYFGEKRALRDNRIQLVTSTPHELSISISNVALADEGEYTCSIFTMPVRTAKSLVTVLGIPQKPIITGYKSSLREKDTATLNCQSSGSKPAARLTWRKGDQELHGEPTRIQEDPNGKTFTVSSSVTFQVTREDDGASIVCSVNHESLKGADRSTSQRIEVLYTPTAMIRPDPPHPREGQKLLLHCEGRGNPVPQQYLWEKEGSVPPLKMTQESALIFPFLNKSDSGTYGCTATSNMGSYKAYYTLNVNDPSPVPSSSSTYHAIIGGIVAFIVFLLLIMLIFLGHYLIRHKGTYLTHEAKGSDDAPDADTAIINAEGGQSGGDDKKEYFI

B1: iCADM3_3R1-L11_02 VHH-hG4PE(R409K) (Fc fusion)
chain: EVQLVESGGGLIQPGGSLRLSCAASGSTVSFNAMGWYRQAPGKGRVLVAVITSGGYTNYADSVKGRFTISRDNSKNTVYLQMNSLRAEDTAVYYCNAEGVYSDYVIMNYWGQGTLVTVSS
notes: also called iCADM3-3R1-L11_02 humanized antibody; not shown: Hinge-CH2-CH3 region of the human IgG4 heavy chain constant region (IgG4 variant)
B2: iCADM3_3R1-L11_05 VHH-hG4PE(R409K) (Fc fusion)
chain: B1 chain with T28I, V29F
notes: also called iCADM3-3R1-L11_05 humanized antibody; not shown: Hinge-CH2-CH3 region of the human IgG4 heavy chain constant region (IgG4 variant)
B3: iCADM3_3R1-L11_01 VHH-hG4PE(R409K) (Fc fusion)
chain: B1 chain with R45L, V46G, V78L, Y79F
notes: also called iCADM3-3R1-L11_01 humanized antibody; not shown: Hinge-CH2-CH3 region of the human IgG4 heavy chain constant region (IgG4 variant)
B4: iCADM3_3R1-L11_03 VHH-hG4PE(R409K) (Fc fusion)
chain: B1 chain with G44Q, V46G, A49S
notes: also called iCADM3-3R1-L11_03 humanized antibody; not shown: Hinge-CH2-CH3 region of the human IgG4 heavy chain constant region (IgG4 variant)
B5: iCADM3_3R1-L11_04 VHH-hG4PE(R409K) (Fc fusion)
chain: B1 chain with P14A, T28I, G44Q, V46G, V78L, Y79F
notes: also called iCADM3-3R1-L11_04 humanized antibody; not shown: Hinge-CH2-CH3 region of the human IgG4 heavy chain constant region (IgG4 variant)
B6: iCADM3_3R1-L11_06 VHH-hG4PE(R409K) (Fc fusion)
chain: B1 chain with E1Q, I12V, P14A, T28I, V29F, G44Q, V46G, Y79F
notes: also called iCADM3-3R1-L11_06 humanized antibody; not shown: Hinge-CH2-CH3 region of the human IgG4 heavy chain constant region (IgG4 variant)
B7: CADM3501 hG4PE(R409K) (antibody, V domains shown)
VH: EVQLVESGGGLVQPGGALRLSCSASGFTFSGYWMHWVRQAPGKGLEWVSQISSSGTIIDSADFVKGRFAVSRDNAKDLLYLQMNSLRADDTAVYYCARGPLAKNGFDIWGQGTMVTVSS
VL: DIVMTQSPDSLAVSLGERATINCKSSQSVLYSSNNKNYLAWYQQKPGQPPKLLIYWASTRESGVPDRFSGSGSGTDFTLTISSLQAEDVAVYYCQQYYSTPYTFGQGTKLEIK
notes: Human IgG4 variant (S228P, L235E, R409K), vector pCI-hKG4PE(R409K)
B8: iCADM3_3R1-L8 VHH-hG4PE(R409K) (Fc fusion)
chain: QVQLVESGGGLVQPGGSLRLSCAASGRTFSNYARGWFRQAPGKEREFVAAIDYSGGSTNYADSAKGRFTISRDNAKNTVYLQMNSLKPGDTAVYYCAAPASRRPSWDADGYDYWGQGTQVTVSS
notes: VHH-Fc antibody; also called anti-CADM3 VHH-Fc antibody iCADM3_3R1-L8; not shown: Hinge-CH2-CH3 region of the human IgG4 heavy chain constant region (IgG4 variant)
B9: CADM3432 hG4PE(R409K) (antibody, V domains shown)
VH: QVQLQQSGPGLVKASQTLSLTCAISGDSVSSRSAAWDWIRQSPSRGLEWLGRTYYRSTWYNDYASSVRSRISINPDTSKNQFSLQLNSVTPEDTAVYYCVRANRKLPAPGQHFYYGMDVWGQGTTVTVSS
VL: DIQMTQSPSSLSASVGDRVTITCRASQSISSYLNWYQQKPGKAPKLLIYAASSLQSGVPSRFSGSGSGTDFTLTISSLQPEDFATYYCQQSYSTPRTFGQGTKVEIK
notes: as for B7
B10: CADM3448 hG4PE(R409K) (antibody, V domains shown)
VH: QVQLQQSGPGLVKPAQTLSLTCAISGDSVSSNSVAWNWVRQSPSRGLEWLGRTYYRSQWYNDYAGSVRSRITISADTSKNQFSLQLNSVTPEDTALYYCVRANRKLPAPGQHFYYGMDVWGQGTTVTVSS
VL: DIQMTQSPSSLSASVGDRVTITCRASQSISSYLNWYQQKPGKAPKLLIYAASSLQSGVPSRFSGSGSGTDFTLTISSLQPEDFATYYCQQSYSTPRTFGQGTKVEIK
notes: as for B7

Legend:
mouse CADM3 [1] = target: T1, mouse CADM3; assay: flow cytometry, 10 ug/mL, mouse CADM3/Expi293F vs parent Expi293F cells
Procedure: (§1) After washing with SB, the cells were suspended in SB, and the fluorescence intensity of each cell was measured using a flow cytometer FACS CANTO II (manufactured by Becton, Dickinson and Company). Note that as a negative control, 10 μg/mL of the anti-AVM antibody was used.
(§2) The detection results were analyzed, and a mean fluorescence intensity (MFI) was calculated using a geometric mean. Further, with respect to the MFI when the concentration of each antibody was 10 μg/mL, the ratio of the MFI (mean fluorescence intensity ratio) between the human CADM3/Expi293F cells and the Expi293F cells (parent cell line) was calculated.
(§3) With respect to the produced humanized anti-CADM3 VHH-Fc antibodies, reactivity with Expi293F cells, human CADM3/Expi293F cells, and mouse CADM3/Expi293F cells was analyzed by the same procedure as in Example 3.

human CADM3 [2] = target: T2, human CADM3; assay: flow cytometry, 10 ug/mL, human CADM3/Expi293F vs parent Expi293F cells
Procedure: as §1, §2, §3

mCADM3-GST [3] = target: T3, mCADM3-GST (mouse); assay: SPR (Biacore T-100), antibody captured, mCADM3-GST as analyte
T3 construct: also called extracellular domain of mouse CADM3 to which GST was added at the C-terminal side; mouse CADM3-GST
Procedure: (§4) The affinity of the anti-CADM3 antibodies produced in Example 2 for human CADM3 and mouse CADM3 was measured using Biacore T-100 (GE Healthcare). Each of the antibodies was immobilized on a […] sensor chip using a Human antibody Capture kit, and the binding ability was evaluated using hCADM3-GST and mCADM3-GST produced in Example 4 as analytes.
(§5) The obtained sensorgram was analyzed with BIA evaluation software, and the dissociation constant (KD value) was calculated.

hCADM3-GST [4] = target: T4, hCADM3-GST (human); assay: SPR (Biacore T-100), antibody captured, hCADM3-GST as analyte
T4 construct: also called extracellular domain of human CADM3 to which GST was added at the C-terminal side; human CADM3-GST
Procedure: as §4, §5

mouse CADM3 [5] = target: T1, mouse CADM3; assay: flow cytometry, 10 ug/mL, mouse CADM3/Expi293F vs parent Expi293F cells; remark: listed apart in the source
human CADM3 [6] = target: T2, human CADM3; assay: flow cytometry, 10 ug/mL, human CADM3/Expi293F vs parent Expi293F cells; remark: listed apart in the source
Procedure: By using the cells, the reactivity of the antibodies produced in Example 2 with the CADM3-expressing cells was analyzed by a fluorescence activated cell sorting (FACS) method according to the following procedure.
as §1, §2

hCADM3-GST [7] = target: T4, hCADM3-GST; assay: SPR (Biacore T-100), antibody captured, hCADM3-GST as analyte; remark: listed apart in the source
Procedure: as §4
(§6) With respect to the produced humanized anti-CADM3 antibodies, affinity for CADM3 by surface plasmon resonance detection was evaluated by the same procedure as in Example 6.

mCADM3-GST [8] = target: T3, mCADM3-GST; assay: SPR (Biacore T-100), antibody captured, mCADM3-GST as analyte; remark: listed apart in the source
Procedure: as §4, §6

Row | Binder | Mean fluorescence intensity ratio (mouse CADM3 [1]) | Mean fluorescence intensity ratio (human CADM3 [2]) | binding result (mCADM3-GST [3]) | binding result (hCADM3-GST [4]) | Mean fluorescence intensity ratio (mouse CADM3 [5]) | Mean fluorescence intensity ratio (human CADM3 [6]) | also measured
1 | B1 | 27.9 | 12.4 | – | – | – | – | –
2 | B2 | 24.6 | 11.1 | – | – | – | – | –
3 | B3 | 12.5 | 12.2 | – | – | – | – | –
4 | B4 | 33.8 | 24.4 | – | – | – | – | –
5 | B5 | 26.7 | 22.5 | – | – | – | – | –
6 | B6 | 42.2 | 33 | – | – | – | – | –
7 | B7 | – | – | binds | binds | 36.1 | 44.9 | –
8 | B8 | – | – | – | – | 8.2 | 5.84 | Kd (hCADM3-GST [7]): 12.5 nM; koff (hCADM3-GST [7]): 0.00051 s⁻¹; kon (hCADM3-GST [7]): 41000 M⁻¹ s⁻¹; Kd (mCADM3-GST [8]): 4.39 nM; koff (mCADM3-GST [8]): 0.00063 s⁻¹; kon (mCADM3-GST [8]): 140000 M⁻¹ s⁻¹
9 | B9 | – | – | binds | binds | 14.6 | 14.7 | –
10 | B10 | – | – | binds | binds | 10.4 | 9.4 | –
